Publication PMC3677924, “Biochemical and Functional Analysis of Drosophila-Sciara Chimeric Sex-Lethal Proteins”

Columns and labels:
Conditions in all cases: protein: recombinant; tags: GST; label: fluorescein (RNA labelling mix)
SXM (GST-SXL Drosophila) [1] = molecular target: T1, SXM (GST-SXL Drosophila) (Drosophila melanogaster, UniProt P19339 1-354); assay: EMSA; apparent Kd, Hill fit; error 95% CI; 20 mM Hepes pH 8.0, 0.1 M KCl, 0.5 mM EDTA, 1 mM DTT, 0.05% NP40, 20% glycerol, 3 µg yeast tRNA; 5 min on ice, then 10 min at room temperature with RNA; 5% native PAGE, 0.25x TBE
T1 sequence: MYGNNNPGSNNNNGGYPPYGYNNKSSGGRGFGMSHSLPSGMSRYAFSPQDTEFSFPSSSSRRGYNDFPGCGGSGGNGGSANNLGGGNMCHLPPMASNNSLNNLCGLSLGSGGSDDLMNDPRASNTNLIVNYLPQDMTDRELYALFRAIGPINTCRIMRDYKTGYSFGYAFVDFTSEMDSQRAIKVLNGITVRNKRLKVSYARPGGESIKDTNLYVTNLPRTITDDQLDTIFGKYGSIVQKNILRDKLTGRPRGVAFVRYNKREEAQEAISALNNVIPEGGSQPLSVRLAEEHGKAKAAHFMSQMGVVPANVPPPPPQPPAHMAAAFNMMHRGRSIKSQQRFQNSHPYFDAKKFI

SXM (GST-SXL Drosophila) [2] = molecular target: T1, SXM (GST-SXL Drosophila); assay: EMSA; cooperative, Hill n>2; error 95% CI; 20 mM Hepes pH 8.0, 0.1 M KCl, 0.5 mM EDTA, 1 mM DTT, 0.05% NP40, 20% glycerol, 3 µg yeast tRNA; 5 min on ice, then 10 min at room temperature with RNA; 5% native PAGE, 0.25x TBE
SXS (GST-SXL Sciara) = molecular target: T2, SXS (GST-SXL Sciara) (Sciara ocellaris, UniProt Q86QM9 1-287); assay: EMSA; Hill n=1; error 95% CI; 20 mM Hepes pH 8.0, 0.1 M KCl, 0.5 mM EDTA, 1 mM DTT, 0.05% NP40, 20% glycerol, 3 µg yeast tRNA; 5 min on ice, then 10 min at room temperature with RNA; 5% native PAGE, 0.25x TBE
T2 sequence: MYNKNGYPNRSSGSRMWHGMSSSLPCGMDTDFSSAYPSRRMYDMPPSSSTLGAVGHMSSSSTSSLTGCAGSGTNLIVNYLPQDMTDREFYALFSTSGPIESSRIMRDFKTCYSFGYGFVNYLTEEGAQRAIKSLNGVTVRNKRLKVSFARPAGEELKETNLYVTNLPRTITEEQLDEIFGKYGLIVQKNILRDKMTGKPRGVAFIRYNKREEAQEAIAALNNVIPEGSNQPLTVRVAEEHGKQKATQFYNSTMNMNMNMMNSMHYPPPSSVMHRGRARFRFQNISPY

ACAUAUUUUUUUUCACAGC (ssRNA) [single poly(U) SXL site]
Kd (SXM (GST-SXL Drosophila) [1]): 150 ± 20 µM

CAUGAUUAUUUUUUUUUAUUUUUUUUCGGUGA (ssRNA) [double poly(U) SXL site]
Kd (SXM (GST-SXL Drosophila) [2]): 500 ± 300 nM
Kd (SXS (GST-SXL Sciara)): 300 ± 200 nM
